Measurements from patent US20250129167A1 (University of Texas, published 2025).

Assays:
Cyno PD-L2-Fc = target: T1, Cyno PD-L2-Fc (cyno, UniProt A0A2K5U5Z4 20-219); test: ForteBio Octet, IgG on sensor, Fc-fusion antigen in solution (avid)
T1 construct: not shown: Fc part of the fusion
T1 sequence: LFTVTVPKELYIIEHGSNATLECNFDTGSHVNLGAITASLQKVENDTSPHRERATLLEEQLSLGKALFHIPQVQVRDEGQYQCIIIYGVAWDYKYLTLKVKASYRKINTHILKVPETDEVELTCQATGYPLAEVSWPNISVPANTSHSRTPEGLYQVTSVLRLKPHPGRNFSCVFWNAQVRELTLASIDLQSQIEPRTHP
Description: (§1) ForteBio KD measurements—ForteBio affinity measurements were performed on an Octet RED384 generally as previously described (sec, e.g., Estep et al., 2013). Briefly, ForteBio affinity measurements were performed by loading IgGs on-line onto AHQ sensors. Sensors were equilibrated off-line in assay buffer for 30 min and then monitored on-line for 60 seconds for baseline establishment. Sensors with loaded IgGs were exposed to 100 nM antigen for 3 minutes, and afterwards were transferred to assay buffer for 3 min for off-rate measurement. For monovalent affinity assessment Fabs were used instead of IgGs. For this assessment the unbiotinylated Fc fusion antigen was loaded on-line onto the AHQ sensors. Sensors were equilibrated off-line in assay buffer for 30 min and then monitored on-line for 60 seconds for baseline establishment. Sensors with loaded antigen were exposed to 100 nM Fab for 3 minutes, and afterwards they were transferred to assay buffer for 3 min for off-rate measurement. All kinetics were analyzed using the 1:1 binding model.

Human PD-L2-Fc [1] = target: T2, Human PD-L2-Fc (human, UniProt Q9BQ51 20-220); test: as above
T2 construct: not shown: Fc part of the fusion
T2 sequence: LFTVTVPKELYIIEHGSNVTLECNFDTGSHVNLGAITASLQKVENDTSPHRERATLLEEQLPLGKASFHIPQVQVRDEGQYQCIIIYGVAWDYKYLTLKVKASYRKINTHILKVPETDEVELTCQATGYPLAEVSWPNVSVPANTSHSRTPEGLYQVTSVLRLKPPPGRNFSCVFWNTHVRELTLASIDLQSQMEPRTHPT
Description: as §1

Cyno PD-L1-Fc = target: T3, Cyno PD-L1-Fc (cyno, UniProt G7PSE7 19-238); test: as above
T3 construct: not shown: The Fc part of the fusion and any linker to it
Description: as §1

Human PD-L1-Fc [2] = target: T4, Human PD-L1-Fc (human, UniProt Q9NZQ7 19-238); test: as above
T4 construct: not shown: Fc part of the fusion
Description: as §1

Mouse PD-L1-Fc [3] = target: T5, Mouse PD-L1-Fc (mouse, UniProt Q9EP73 19-238, limits assumed); test: as above
T5 construct: also called murine PD-L1; not shown: Fc part of the fusion
Description: as §1

[4] = target: T6, PD-L2 on CHO-PD-L2 cells (Promega blockade system) (UniProt Q9BQ51 20-273, limits assumed); test: cell-based or functional assay
T6 sequence (looked up): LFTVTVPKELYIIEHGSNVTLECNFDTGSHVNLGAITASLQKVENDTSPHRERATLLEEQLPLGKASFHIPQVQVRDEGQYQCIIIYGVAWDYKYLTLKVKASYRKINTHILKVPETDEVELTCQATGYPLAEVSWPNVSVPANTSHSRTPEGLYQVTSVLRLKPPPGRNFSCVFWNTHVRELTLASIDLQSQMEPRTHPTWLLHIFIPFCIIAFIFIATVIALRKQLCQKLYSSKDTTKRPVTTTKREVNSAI

Mouse PD-L2-Fc [5] = target: T7, Mouse PD-L2-Fc (mouse, UniProt Q9WUL5 20-219, limits assumed); test: column 'Species cross-reactivity'
T7 construct: also called murine PD-L2; not shown: Fc part of the fusion
T7 sequence (looked up): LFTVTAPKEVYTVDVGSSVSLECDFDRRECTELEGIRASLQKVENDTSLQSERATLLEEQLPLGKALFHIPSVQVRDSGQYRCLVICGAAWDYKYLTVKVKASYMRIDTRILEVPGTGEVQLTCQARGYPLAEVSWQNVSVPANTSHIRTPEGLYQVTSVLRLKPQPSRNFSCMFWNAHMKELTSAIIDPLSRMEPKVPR

Human PD-L2-Fc [6] = target: T2, Human PD-L2-Fc; test: ForteBio Octet, Fc-fusion antigen on sensor, Fab in solution (monovalent)
Description: as §1

Human PD-L1-Fc [7] = target: T4, Human PD-L1-Fc; test: as above
Description: as §1

[8] = target: PD-L1 on CHO-PD-L1/PDL2 cells (Promega blockade system); test: cell-based or functional assay
[9] = target: PD-L2 on CHO-PD-L1/PDL2 cells (Promega blockade system); test: cell-based or functional assay
[10] = target: PD-L1 on CHO-PD-L1 cells (Promega blockade system) (UniProt Q9NZQ7 19-290, limits assumed); test: cell-based or functional assay
Mouse PD-L2-Fc [11] = target: T7, Mouse PD-L2-Fc; test: ForteBio Octet, IgG on sensor, Fc-fusion antigen in solution (avid)
Description: as §1

Mouse PD-L1-Fc [12] = target: T5, Mouse PD-L1-Fc; test: column 'Species cross-reactivity'

T3 sequence (G7PSE7 entry or part of it limits assumed): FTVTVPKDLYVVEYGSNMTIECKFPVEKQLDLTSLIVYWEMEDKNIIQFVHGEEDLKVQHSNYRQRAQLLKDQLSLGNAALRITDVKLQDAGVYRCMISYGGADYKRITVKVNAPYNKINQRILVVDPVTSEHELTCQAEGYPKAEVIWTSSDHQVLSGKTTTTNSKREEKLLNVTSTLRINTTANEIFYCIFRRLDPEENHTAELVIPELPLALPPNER
T5 sequence (Q9EP73 19-238 limits assumed): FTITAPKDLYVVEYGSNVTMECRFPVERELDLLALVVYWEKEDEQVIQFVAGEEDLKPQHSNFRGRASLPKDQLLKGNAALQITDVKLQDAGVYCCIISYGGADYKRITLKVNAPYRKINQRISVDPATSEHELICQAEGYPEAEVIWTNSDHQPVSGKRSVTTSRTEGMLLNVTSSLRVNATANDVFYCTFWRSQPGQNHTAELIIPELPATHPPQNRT

B1: ADI-20241 (antibody, V domains shown)
VH: QVQLVQSGAEVKKPGSSVKVSCKASGGTFSEYAIVWVRQAPGQGLEWMGGIIPLFGTANYAQKFQGRVTITADESTSTAYMELSSLRSEDTAVYYCARPLDRRIVAFDIWGQGTMVTVSS
VL: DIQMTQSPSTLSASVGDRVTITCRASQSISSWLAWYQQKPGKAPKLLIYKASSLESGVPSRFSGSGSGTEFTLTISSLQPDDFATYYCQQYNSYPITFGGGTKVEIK
notes: Vk1-05 common light chain; also called PD-L2-C2-1; cLC-PDL2 (22726)
Kd (Cyno PD-L2-Fc): 253 pM | Kd (Human PD-L2-Fc [1]): 487 pM | binding result (Cyno PD-L1-Fc): no binding (tested: 100 nM) | binding result (Human PD-L1-Fc [2]): no binding (tested: 100 nM) | binding result (Mouse PD-L1-Fc [3]): no binding (tested: 100 nM) | EC50 (read off the curve); luciferase fold induction, Promega CHO-PD-L2 / PD-1 Jurkat assay [Cont'd] [4]: ~200 pM | binding result (Mouse PD-L2-Fc [5]): binds

B2: ADI-20241 Fab (Fab, V domains shown)
VH: B1 VH
VL: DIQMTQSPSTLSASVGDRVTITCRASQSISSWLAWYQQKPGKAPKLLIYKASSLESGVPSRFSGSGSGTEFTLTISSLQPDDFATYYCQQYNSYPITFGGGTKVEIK
notes: also called cLC-PDL2 (22726) Fab
Kd (Human PD-L2-Fc [6]): 1990 pM | binding result (Human PD-L1-Fc [7]): no binding (tested: 100 nM)

B3: DiPDL candidate C2 (bispecific antibody, V domains shown)
VH 1: QVQLVQSGAEVKKPGSSVKVSCKASGGTFSSYFISWVRQAPGQGLEWMGQIIPNVGTANYAQKFQGRVTITADESTSTAYMELSSLRSEDTAVYYCARDQTAKAHLVWGQGTLVTVSS
VH 2: B1 VH
VL: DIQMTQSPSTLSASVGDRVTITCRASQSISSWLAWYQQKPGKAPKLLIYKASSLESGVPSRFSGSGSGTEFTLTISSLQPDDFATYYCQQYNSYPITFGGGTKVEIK
EC50 (read off the curve); luciferase fold induction, Promega CHO-PD-L1/PD-L2 / PD-1 Jurkat assay, combined blockade of PD-L1 and PD-L2 [Cont'd] [8]: ~600 pM | EC50 (read off the curve); luciferase fold induction, Promega CHO-PD-L1/PD-L2 / PD-1 Jurkat assay, combined blockade of PD-L1 and PD-L2 [Cont'd] [9]: ~600 pM

B4: ADI-20230 (antibody, V domains shown)
VH: B3 VH 1
VL: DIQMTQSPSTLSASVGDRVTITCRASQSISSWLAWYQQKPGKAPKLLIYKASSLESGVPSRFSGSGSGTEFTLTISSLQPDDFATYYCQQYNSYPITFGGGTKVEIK
notes: Vk1-05 common light chain; also called PD-L1-C2-1; cLC-PDL1 (22726)
EC50 (read off the curve); luciferase fold induction, Promega CHO-PD-L1 / PD-1 Jurkat assay [10]: ~100 pM | binding result (Cyno PD-L2-Fc): no binding (tested: 100 nM) | binding result (Mouse PD-L2-Fc [11]): no binding (tested: 100 nM) | binding result (Human PD-L2-Fc [1]): no binding (tested: 100 nM) | Kd (Cyno PD-L1-Fc): 264 pM | Kd (Human PD-L1-Fc [2]): 205 pM | binding result (Mouse PD-L1-Fc [3]): no binding (tested: 100 nM)

B5: ADI-20230 Fab (Fab, V domains shown)
VH: B3 VH 1
VL: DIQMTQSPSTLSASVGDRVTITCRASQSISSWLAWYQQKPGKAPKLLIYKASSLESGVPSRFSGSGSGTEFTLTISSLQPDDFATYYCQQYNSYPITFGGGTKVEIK
notes: also called cLC-PDL1 (22726) Fab
binding result (Human PD-L2-Fc [6]): no binding (tested: 100 nM) | Kd (Human PD-L1-Fc [7]): 823 pM

B6: ADI-20236 (antibody, V domains shown)
VH: QVQLVQSGAEVKKPGSSVKVSCKASGGTFSSHAISWVRQAPGQGLEWMGGIIPIFGWALYAQKFQGRVTITADESTSTAYMELSSLRSEDTAVYYCARPGDHRASHFDYWGQGTLVTVSS
VL: DIQMTQSPSSVSASVGDRVTITCRASQGISSWLAWYQQKPGKAPKLLIYAASSLQSGVPSRFSGSGSGTDFTLTISSLQPEDFATYYCQQANSFPITFGGGTKVEIK
notes: Vk1-12 common light chain; also called PD-L2-C1-1; cLC-PDL2 (22731)
Kd (Cyno PD-L2-Fc): 640 pM | Kd (Human PD-L2-Fc [1]): 416 pM | binding result (Cyno PD-L1-Fc): no binding (tested: 100 nM) | binding result (Human PD-L1-Fc [2]): no binding (tested: 100 nM) | binding result (Mouse PD-L1-Fc [3]): no binding (tested: 100 nM) | EC50 (read off the curve); luciferase fold induction, Promega CHO-PD-L2 / PD-1 Jurkat assay [Cont'd] [4]: ~200 pM | binding result (Mouse PD-L2-Fc [5]): binds

B7: ADI-20225 (antibody, V domains shown)
VH: QVQLVQSGAEVKKPGASVKVSCKASGGTFRSYAIQWVRQAPGQGLEWMGWIIPGFGTANYAQKFQGRVTITADESTSTAYMELSSLRSEDTAVYYCARELSHGGLSYWGQGTLVTVSS
VL: B6 VL
notes: Vk1-12 common light chain; also called PD-L1-C1-1; cLC-PDL1 (22731)
EC50 (read off the curve); luciferase fold induction, Promega CHO-PD-L1 / PD-1 Jurkat assay [10]: ~100 pM | binding result (Cyno PD-L2-Fc): no binding (tested: 100 nM) | binding result (Mouse PD-L2-Fc [11]): no binding (tested: 100 nM) | binding result (Human PD-L2-Fc [1]): no binding (tested: 100 nM) | Kd (Cyno PD-L1-Fc): 237 pM | Kd (Human PD-L1-Fc [2]): 223 pM | binding result (Mouse PD-L1-Fc [12]): binds

B8: DiPDL candidate C1 (bispecific antibody, V domains shown)
VH 1: B7 VH
VH 2: B6 VH
VL: B6 VL
EC50 (read off the curve); luciferase fold induction, Promega CHO-PD-L1/PD-L2 / PD-1 Jurkat assay, combined blockade of PD-L1 and PD-L2 [Cont'd] [8]: ~200 pM | EC50 (read off the curve); luciferase fold induction, Promega CHO-PD-L1/PD-L2 / PD-1 Jurkat assay, combined blockade of PD-L1 and PD-L2 [Cont'd] [9]: ~200 pM

B9: ADI-20236 Fab (Fab, V domains shown)
VH: B6 VH
VL: B6 VL
notes: also called cLC-PDL2 (22731) Fab
Kd (Human PD-L2-Fc [6]): 541 pM | binding result (Human PD-L1-Fc [7]): no binding (tested: 100 nM)

B10: ADI-20225 Fab (Fab, V domains shown)
VH: B7 VH
VL: B6 VL
notes: also called cLC-PDL1 (22731) Fab
binding result (Human PD-L2-Fc [6]): no binding (tested: 100 nM) | Kd (Human PD-L1-Fc [7]): 833 pM
